These results are taken from patent US20240400627A1 (YALE UNIVERSITY, published 2024).

This test has as its target T1, Nicotinamide Nucleotide Transhydrogenase (NNT), endogenous, mouse kidney (mouse, UniProt Q61941 44-1086).
T1 construct: Inner mitochondrial membrane protein; absent in C57BL/6J mice (deletion of exons 7-11 of Nnt)
T1 sequence (looked up): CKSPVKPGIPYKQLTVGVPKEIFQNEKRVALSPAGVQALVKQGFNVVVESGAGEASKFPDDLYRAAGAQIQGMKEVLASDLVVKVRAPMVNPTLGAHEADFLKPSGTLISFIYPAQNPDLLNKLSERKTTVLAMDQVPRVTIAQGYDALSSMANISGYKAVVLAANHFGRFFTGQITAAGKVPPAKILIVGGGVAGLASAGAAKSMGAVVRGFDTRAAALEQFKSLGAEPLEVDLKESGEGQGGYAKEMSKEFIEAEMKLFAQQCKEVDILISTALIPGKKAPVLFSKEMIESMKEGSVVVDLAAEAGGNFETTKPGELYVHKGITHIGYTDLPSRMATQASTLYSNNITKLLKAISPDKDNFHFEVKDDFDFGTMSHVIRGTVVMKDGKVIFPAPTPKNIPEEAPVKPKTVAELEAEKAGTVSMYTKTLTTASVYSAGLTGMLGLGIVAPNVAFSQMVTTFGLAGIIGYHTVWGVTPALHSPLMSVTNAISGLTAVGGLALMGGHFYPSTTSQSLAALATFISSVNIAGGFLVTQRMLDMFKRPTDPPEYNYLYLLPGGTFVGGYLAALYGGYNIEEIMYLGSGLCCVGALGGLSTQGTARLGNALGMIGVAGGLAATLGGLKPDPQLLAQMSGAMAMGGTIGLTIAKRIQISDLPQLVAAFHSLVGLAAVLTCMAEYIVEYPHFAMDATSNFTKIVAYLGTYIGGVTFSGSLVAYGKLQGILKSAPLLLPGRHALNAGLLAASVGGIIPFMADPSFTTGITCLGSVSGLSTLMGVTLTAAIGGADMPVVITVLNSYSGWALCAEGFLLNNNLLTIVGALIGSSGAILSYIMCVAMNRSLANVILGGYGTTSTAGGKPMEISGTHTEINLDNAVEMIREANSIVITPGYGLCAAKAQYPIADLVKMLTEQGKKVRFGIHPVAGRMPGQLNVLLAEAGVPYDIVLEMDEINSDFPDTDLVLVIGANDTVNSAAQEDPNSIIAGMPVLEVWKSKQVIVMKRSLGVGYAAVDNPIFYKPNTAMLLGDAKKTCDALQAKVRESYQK
Description: anti-HA immunoprecipitation from mouse kidney lysates, immunoblot. As to the method: Homogenates were then sonicated for 30 seconds (2×15 second bursts at 40% power) and incubated for 45 minutes on ice to complete protein solubilization. Lysates were centrifuged at 8000 rpm for 15 minutes. Protein concentrations were measured with the Protein Assay Dye Reagent Concentrate (catalog #5000006, Bio-Rad). Anti-HA magnetic beads (catalog #88837, ThermoFischer Scientific) were equilibrated in lysis buffer (50 μL beads per reaction in 500 μl of lysis buffer) for 10 minutes at room temperature on a rocking shaker, and then incubated with a total of 4 mg of tissue lysate per sample, overnight, at 4° C. Following four 5-minute washes with 1 ml lysis buffer, the dynabeads were magnetically recovered and precipitated proteins were eluted in 60 μl of 2× Laemmli sample buffer (catalog #1610747, Bio-Rad) with 300 mM Dithiothreitol (DTT). One-third of the eluted proteins (20 μl) was loaded per sample per gel for immunoblotting.
The alleles required to produce the Pkd1-KO+/−CTT mice were moved to this NNT-deficient background (J-Pkd1-KO and J-Pkd1-KO+CTT). […] No NNT was detected in glomeruli or Bowman's capsule. This pattern reproduced the one reported in the Human Protein Atlas (Uhlen, et al., Science Vol. 347, 1260419 (2015)). […] NNT was only detected in immunoprecipitates from “N” cystic mice that express CTT and not in those derived from N-Pkd1-KO mice that express NNT but not CTT.

B1: 2HA-PC1-CTT (final 200 amino acids of human polycystin-1, aa 4102-4302, with an N-terminal 2xHA epitope tag) (other, not shown: small tags and cut ends)
chain: VILRWRYHALRGELYRPAWEPQDYEMVELFLRRLRLWMGLSKVKEFRHKVRFEGMEPLPSRSSRGSKVSPDVPPPSAGSDASHPSTSSSQLDGLSVSLGRLGTRCEPEPSRLQAVFEALLTQFDRLNQATEDVYQLEQQLHSLQGRRSSRAPAGSSRGPSPGLRPALPSRLARASRGVDLATGPSRTPLRAKNKVHPSST
notes: Expressed from a BAC transgene in renal epithelial cells of Pkd1-KO+CTT mice; detected as a 37-kDa HA-tagged band; also called 2HA-PKD1-CTT; polycystin-1 C-terminal tail
As to B1, the binding result is on record as “binds”.
